According to article PMC6699081, “Development and application of a transcriptional sensor for detection of heterologous acrylic acid production in E. coli” (Microbial Cell Factories, 2019):

What was measured:
[1] = system: T1, C=CC(N)=O; assay: purified protein; assay type: biochemical, Bacillus sp. (in: firmicutes); conditions: 20 mM potassium phosphate pH 7.2, 150 mM NaCl, 2 mM DTT, 37 °C, 15 nM enzyme, 20 min
T1 construct: C-terminal 6xHis tag, expressed in E. coli BL21(DE3), His-GraviTrap purified; catalytic triad E59, K134, C166

[2] = system: C=CC(N)=O; assay: purified protein; conditions: 20 mM potassium phosphate pH 7.2, 150 mM NaCl, 2 mM DTT, 37 °C, 15 nM enzyme, 20 min

Row | Substance | Km [1] [mM] | Vmax [1] [µM/min] | kcat [1] [s⁻¹] | kcat/Km [1] [M⁻¹ s⁻¹] | Km [2] [mM] | Vmax [2] [µM/min] | kcat [2] [s⁻¹] | kcat/Km [2] [M⁻¹ s⁻¹]
1 | RAPc8 amidase (Bacillus sp. (in: firmicutes)) | 7.3 ± 0.1 | 106 | 118 ± 6.75 | 16300 ± 1060 |  |  |  | 
2 | RAPc8 amidase (Bacillus sp. (in: firmicutes); A77T) |  |  |  |  | 4.5 ± 0.2 | 66.7 | 74.1 ± 2.32 | 16600 ± 357
3 | RAPc8 amidase (Bacillus sp. (in: firmicutes); A77T/D294N/K342E/M203V/M45L) |  |  |  |  | 7.4 ± 1.3 | 176 | 196 ± 17.9 | 26800 ± 2390
4 | RAPc8 amidase (Bacillus sp. (in: firmicutes); A77T/M203V) |  |  |  |  | 4.6 ± 0.4 | 64.7 | 71.9 ± 5.14 | 15600 ± 598
5 | RAPc8 amidase (Bacillus sp. (in: firmicutes); M203V) |  |  |  |  | 7.2 ± 1.1 | 147 | 163 ± 18.6 | 22900 ± 1170
